Assay [1] addresses T1, displayed FcCH3A, B135 (D399L/K409W), on yeast cell surface (human, UniProt P0DOX5 227-449 = IgG part).
T1 construct: also called B135 CH3A chain (yeast)
T1 Fc: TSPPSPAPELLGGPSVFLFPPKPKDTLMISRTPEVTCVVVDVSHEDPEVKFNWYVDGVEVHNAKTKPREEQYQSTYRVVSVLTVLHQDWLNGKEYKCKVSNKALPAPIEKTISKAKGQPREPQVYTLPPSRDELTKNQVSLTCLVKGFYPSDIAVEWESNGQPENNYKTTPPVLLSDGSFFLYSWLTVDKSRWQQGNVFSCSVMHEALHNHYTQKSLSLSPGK
Briefly: flow cytometry of diploid yeast: MFI of Flag-tagged secreted FcCH3B held on displayed FcCH3A (anti-Flag mouse mAb and PE anti-mouse antibody), normalised to EW-RVT = 100 %. (In general: A flow cytometer gives signals particle by particle.)

Assay [2] concerns the target T2, displayed FcCH3A, A210 (E357A/S364Y/K370E), on yeast cell surface (human, UniProt P0DOX5 227-449 = IgG part).
T2 construct: also called A210 CH3A chain (yeast)
T2 Fc: T1 Fc with E133A, S140Y, K146E, L175D, W185K
The description is as above. The source says:
(§1) FACS was sequentially performed four times. […] Table 9 below summarizes the mutation pairs introduced into individual clones selected from the respective LibA2 and LibB2 libraries.

Assay [3] has as its target T3, displayed FcCH3A, KiH (Genentech) (T366S/L368A/Y407V), on yeast cell surface (human, UniProt P0DOX5 227-449 = IgG part).
T3 construct: also called KiH CH3A chain (yeast)
T3 Fc: T1 Fc with T142S, L144A, L175D, Y183V, W185K
The experiment in a line: flow cytometry histogram (PE, FL2-H) of diploid yeast: Flag-tagged secreted FcCH3B held on displayed FcCH3A, anti-Flag mouse mAb and PE anti-mouse antibody. As to the method: Specifically, the diploid in which the expression of the heterodimeric heavy chain constant region was induced was reacted with an antibody recognizing flag-tag included in the secreted FcCH3B (anti-Flag mouse mAb, F3165) (Sigma-Aldrich) and an antibody conjugated with PE (phycoerythrin conjugated anti-mouse mAb, sc-3738) (Santa Cruz biotechnology), and a signal of PE was analyzed by flow cytometry.

The target in assay [4] is T4, B168w/oW-VT (displayed FcCH3A on yeast cell surface).
T4 construct: also called B168w/oW-VT CH3A chain (yeast), D399L
T4 Fc: T1 Fc with W185K
The experiment in a line: flow cytometry of diploid yeast: MFI of Flag-tagged secreted FcCH3B held on displayed FcCH3A (anti-Flag mouse mAb and PE anti-mouse antibody), normalised to EW-RVT = 100 %.
Text: as §1

In assay [5] the target is T5, displayed FcCH3A, A216 (E357G/S364W/K370E), on yeast cell surface (human, UniProt P0DOX5 227-449 = IgG part).
T5 construct: also called A216 CH3A chain (yeast)
T5 Fc: T1 Fc with E133G, S140W, K146E, L175D, W185K
The assay is described as above.
Text: as §1

Assay [6] deals with T6, displayed FcCH3A, A241 (E357N/S364W/K370E), on yeast cell surface (human, UniProt P0DOX5 227-449 = IgG part).
T6 construct: also called A241 CH3A chain (yeast)
T6 Fc: T1 Fc with E133N, S140W, K146E, L175D, W185K
The description is as above.
Text: as §1

Assay [7] deals with T7, A107w/oW-VT (displayed FcCH3A on yeast cell surface).
T7 construct: also called A107w/oW-VT CH3A chain (yeast), K370E
T7 Fc: T1 Fc with K146E, L175D, W185K
The assay is described as above.
Text: as §1

Assay [8] addresses T8, displayed FcCH3A, B235 (K392C/D399L), on yeast cell surface (human, UniProt P0DOX5 227-449 = IgG part, chain 1 pos 168 (K392C): said to form an inter-chain disulfide with D399C of the CH3B partner).
T8 construct: also called B235 CH3A chain (yeast)
T8 Fc: T1 Fc with K168C, W185K
Described as above.
Text: as §1

The target in assay [9] is T9, displayed FcCH3A, B212 (K392I/D399L), on yeast cell surface (human, UniProt P0DOX5 227-449 = IgG part).
T9 construct: also called B212 CH3A chain (yeast)
T9 Fc: T1 Fc with K168I, W185K
Described as above.
Text: as §1

Assay [10] addresses T10, displayed FcCH3A, B215 (K392R/K409R/D399L), on yeast cell surface (human, UniProt P0DOX5 227-449 = IgG part).
T10 construct: also called B215 CH3A chain (yeast)
T10 Fc: T1 Fc with K168R, W185R
Described as above.
Text: as §1

For assay [11], the target named is T11, displayed FcCH3A, B168 (D399L/K409W), on yeast cell surface (human, UniProt P0DOX5 227-449 = IgG part).
T11 construct: also called B168 CH3A chain (yeast)
T11 Fc: T1 Fc
The description is as above.

Assay [12] addresses T12, displayed FcCH3A, A205 (E357D/S364W/K370E), on yeast cell surface (human, UniProt P0DOX5 227-449 = IgG part).
T12 construct: also called A205 CH3A chain (yeast)
T12 Fc: T1 Fc with E133D, S140W, K146E, L175D, W185K
The assay is described as above.
Text: as §1

Numbering of substitutions follows the chain as printed. Numbers in names are those of the source.

B1: secreted FcCH3B, B135 (K392S/K409L/D399V/F405T), from yeast (other)
chain: T1 Fc with K168S, L175V, F181T, W185L
notes: also called B135 CH3B chain (yeast); not shown: flag-tag
Take B1: the binding result in assay [1] is recorded as “binds”.

B2: secreted FcCH3B, A210 (E357N/K370H), from yeast (other)
chain: T1 Fc with E133N, K146H, L175D, W185K
notes: also called A210 CH3B chain (yeast); not shown: flag-tag
Turning to B2, the binding result in assay [2] is given as “binds”.

B3: secreted FcCH3B, KiH (Genentech) (T366W), from yeast (other)
chain: T1 Fc with T142W, L175D, W185K
notes: also called KiH CH3B chain (yeast); not shown: flag-tag
Turning to B3, in assay [3], the binding result was “binds”.

B4: B168w/oW-VT (secreted FcCH3B from yeast) (other)
secreted Fc chain (hinge-CH2-CH3B): T1 Fc with K168G, L175D, W185M
notes: also called B168w/oW-VT CH3B chain (yeast), K392G/K409M
As for B4, the binding result in [4] is “binds”.

B5: secreted FcCH3B, A216 (E357N), from yeast (other)
chain: T1 Fc with E133N, L175D, W185K
notes: also called A216 CH3B chain (yeast); not shown: flag-tag
For the molecule B5, the binding result in [5] is “binds”.

B6: secreted FcCH3B, A241 (E357N), from yeast (other)
chain: T1 Fc with E133N, L175D, W185K
notes: also called A241 CH3B chain (yeast); not shown: flag-tag
For B6, the binding result in [6] was “binds”.

B7: A107w/oW-VT (secreted FcCH3B from yeast) (other)
secreted Fc chain (hinge-CH2-CH3B): T1 Fc with E133N, L175D, W185K
notes: also called A107w/oW-VT CH3B chain (yeast), E357N
Regarding B7, in assay [7], the binding result is “binds”.

B8: secreted FcCH3B, B235 (D399C/K392G/K409M), from yeast (other)
chain: T1 Fc with K168G, L175C, W185M
notes: also called B235 CH3B chain (yeast); not shown: flag-tag
As for B8, the binding result in assay [8] is recorded as “binds”.

B9: secreted FcCH3B, B212 (D399G/K392G/K409M), from yeast (other)
chain: T1 Fc with K168G, L175G, W185M
notes: also called B212 CH3B chain (yeast); not shown: flag-tag
B9: the binding result in assay [9] is on record as “binds”.

B10: secreted FcCH3B, B215 (D399W/K392G/K409M), from yeast (other)
chain: T1 Fc with K168G, L175W, W185M
notes: also called B215 CH3B chain (yeast); not shown: flag-tag
As to B10, the binding result in assay [10] is recorded as “binds”.

B11: secreted FcCH3B, B168 (K392G/K409M/D399V/F405T), from yeast (other)
chain: T1 Fc with K168G, L175V, F181T, W185M
notes: also called B168 CH3B chain (yeast); not shown: flag-tag
With B11, in assay [11], the binding result is “binds”.

B12: secreted FcCH3B, A205 (E357N/K370R), from yeast (other)
chain: T1 Fc with E133N, K146R, L175D, W185K
notes: also called A205 CH3B chain (yeast); not shown: flag-tag
Regarding B12, in assay [12], the binding result was “binds”.

The record behind these values is patent US20180346600A1 (AJOU UNIVERSITY INDUSTRY ACADEMIC COOPERATION FOUNDATION, published 2018).
